Sequences and labels used below:
B1: HCAb PR004433 (antibody, human IgG1, V domains shown)
VH: EVQLVETGGGLIQPGGSLRLSCAASGFTVSDSYMTWVRQAPGKGLEWVSVIFSGGRTYYSDSVKGRFTISRDNAKNTLYLQMNSLRAEDTALYYCARRNYDDTRGTDVFDIWGQGTMVTVSS
notes: also called PR001046_R2_4G10; anti-BCMA HCAb antibody PR004433
B2: PR006031 (antibody, V domains shown)
VH: B1 VH
notes: also called PR004433 variant molecule; Hinge3_5
B3: PR006316 (antibody, V domains shown)
VH: B1 VH
notes: also called PR004433 variant molecule; Hinge9_5
B4: PR006319 (antibody, V domains shown)
VH: B1 VH
notes: also called PR004433 variant molecule; Hinge10_3
B5: PR004433-PROTAC (antibody, human IgG1, V domains shown)
VH: B1 VH
modifications: BRD4 protein degrading agent (PROTAC GNE-987 with a disulfide-containing linker) coupled by a disulfide bond to cysteine, Cys-220 site (Eu numbering) as the filing aims
notes: Coupling product without HIC purification; DAR=2 component 66.4%, naked antibody 28.4%; also called coupling product PR004433-PROTAC
B6: PR006468-ADC (antibody, V domains shown)
VH: B1 VH
modifications: mc-vc-PAB-MMAE coupled to Cys1 (first cysteine) of the mouse IgG2c hinge region (90.8% of the site coupled)
notes: Purified coupling product of PR006468 with mc-vc-PAB-MMAE, DAR=2 component 95.5%; also called coupling product PR006468-ADC
B7: PR006314 (antibody, V domains shown)
VH: B1 VH
notes: also called PR004433 variant molecule; Hinge8_18
B8: PR006042 (antibody, V domains shown)
VH: B1 VH
notes: also called PR004433 variant molecule; Hinge6_18
B9: HCAb PR006468 (antibody, V domains shown)
VH: B1 VH
B10: PR006310 (antibody, V domains shown)
VH: B1 VH
notes: also called PR004433 variant molecule; Hinge7_2
B11: PR006036 (antibody, V domains shown)
VH: B1 VH
notes: also called PR004433 variant molecule; Hinge4_15
B12: PR006040 (antibody, V domains shown)
VH: B1 VH
notes: also called PR004433 variant molecule; Hinge6_4
B13: PR006313 (antibody, V domains shown)
VH: B1 VH
notes: also called PR004433 variant molecule; Hinge8_8
B14: PR006038 (antibody, V domains shown)
VH: B1 VH
notes: also called PR004433 variant molecule; Hinge5_12
B15: PR006034 (antibody, V domains shown)
VH: B1 VH
notes: also called PR004433 variant molecule; Hinge4_1
B16: PR006039 (antibody, V domains shown)
VH: B1 VH
notes: also called PR004433 variant molecule; Hinge5_13
B17: PR006317 (antibody, V domains shown)
VH: B1 VH
notes: also called PR004433 variant molecule; Hinge9_7
B18: PR006035 (antibody, V domains shown)
VH: B1 VH
notes: also called PR004433 variant molecule; Hinge4_6
B19: PR006321 (antibody, V domains shown)
VH: B1 VH
notes: also called PR004433 variant molecule; Hinge10_7
B20: PR006041 (antibody, V domains shown)
VH: B1 VH
notes: also called PR004433 variant molecule; Hinge6_15
B21: PR006320 (antibody, V domains shown)
VH: B1 VH
notes: also called PR004433 variant molecule; Hinge10_5
B22: PR006037 (antibody, V domains shown)
VH: B1 VH
notes: also called PR004433 variant molecule; Hinge5_2
B23: PR006033 (antibody, V domains shown)
VH: B1 VH
notes: also called PR004433 variant molecule; Hinge3_18
B24: PR006318 (antibody, V domains shown)
VH: B1 VH
notes: also called PR004433 variant molecule; Hinge9_14
B25: PR006315 (antibody, V domains shown)
VH: B1 VH
notes: also called PR004433 variant molecule; Hinge8_20
B26: PR006032 (antibody, V domains shown)
VH: B1 VH
notes: also called PR004433 variant molecule; Hinge3_6
B27: PR006312 (antibody, V domains shown)
VH: B1 VH
notes: also called PR004433 variant molecule; Hinge7_19
B28: PR005744-ADC (bispecific antibody, human IgG1, kappa)
chain 1: QVQLVESGGGVVQPGRSLRLSCAATGFTFSSYGMYWVRQAPGKGLEWVAAIWNDGSNNYYADSVKGRFTISRDDSKNTLNLQMNSLRAEDTAMYYCARDRLPMASLRYFDWLGVMDAWGQGTSVTVSSASTKGPSVFPLAPSSKSTSGGTAALGCLVKDYFPEPVTVSWNSGALTSGVHTFPAVLQSSGLYSLSSVVTVPSSSLGTQTYICNVNHKPSNTKVDKKVEPKSC
chain 2: not shown
modifications: mc-vc-PAB-MMAE coupled to Cys-220 (Eu numbering) of the linker peptide (99.07% of the site coupled)
notes: Coupling product of PR005744 with mc-vc-PAB-MMAE; also called coupling product PR005744-ADC
B29: HCAb PR000020 (antibody, human IgG1, V domains shown)
VH: EVQLVETGGGLIQPGGSLRLSCAASGLNVSRHYLSWVRQAPGKGLEWVAVIYSGGGIEYVDSVKGRFTISRDNANNTLYLQMRSLRTEDSAVYYCARAIPRPHGSDIWGQGTMVTVSS
notes: Fully human heavy-chain-only antibody (VH, human IgG1 hinge, CH2, CH3), dimer of two heavy chains, no light chain; also called CL24; anti-CTLA4 HCAb antibody PR000020
B30: PR000020-ADC (antibody, human IgG1, V domains shown)
VH: B29 VH
modifications: mc-vc-PAB-MMAE coupled to C124 (Cys-220 according to Eu numbering)
notes: Purified coupling product of HCAb PR000020 with mc-vc-PAB-MMAE, main component DAR=2; also called coupling product PR000020-ADC
B31: PR001046-ADC (antibody, human IgG1, V domains shown)
VH: B1 VH with S32N, R56N, S60A
modifications: mc-vc-PAB-MMAE coupled mainly to the cysteine at site 127 (Cys-220 according to Eu numbering)
notes: Purified coupling product of HCAb PR001046 with mc-vc-PAB-MMAE, main component DAR=2; also called coupling product PR001046-ADC
B32: HCAb PR001046 (antibody, human IgG1, V domains shown)
VH: B1 VH with S32N, R56N, S60A
notes: Fully human heavy-chain-only antibody with human IgG1 hinge and Fc; also called 1005P63B7; anti-BCMA HCAb antibody PR001046

Residue numbers refer to the chain shown, from its start.

In the first assay the target is T1, human BCMA (human, UniProt Q02223 1-184).
T1 construct: whole, on cells; also called hBCMA; tumor necrosis factor receptor superfamily member 17
T1 sequence (looked up): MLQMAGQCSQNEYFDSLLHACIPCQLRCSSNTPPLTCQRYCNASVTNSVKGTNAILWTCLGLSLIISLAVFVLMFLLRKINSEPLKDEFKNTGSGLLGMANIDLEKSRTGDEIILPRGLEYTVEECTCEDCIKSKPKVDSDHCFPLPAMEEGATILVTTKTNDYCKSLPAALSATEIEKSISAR
The assay can be described thus: flow cytometry (FACS) on NCI-H929 cells. (In flow cytometry, cells or beads pass a laser one at a time.)
On to B1, for which the binding result is “binds”.

For B2, the binding result was “binds”.

Regarding B3, the binding result is reported as “binds”.

Turning to B4, the binding result is listed as “binds”.

Turning to B5, the binding result is “binds”.

In the case of B6, the binding result is recorded as “binds”.

As for B7, the binding result is on record as “binds”.

For B8, the binding result was “binds”.

For B9, the binding result was “binds”.

For the molecule B10, the binding result is “binds”.

Consider B11, for which the binding result is recorded as “binds”.

Consider B12, for which the binding result is on record as “binds”.

Turning to B13, the binding result is given as “binds”.

Regarding B14, the binding result is recorded as “binds”.

Regarding B15, the binding result is recorded as “binds”.

With B16, the binding result is given as “binds”.

On to B17, for which the binding result is on record as “binds”.

Turning to B18, the binding result is given as “binds”.

Consider B19, for which the binding result is given as “binds”.

As to B20, the binding result is on record as “binds”.

As for B21, the binding result was “binds”.

Regarding B22, the binding result is given as “binds”.

Regarding B23, the binding result is recorded as “binds”.

As to B24, the binding result is “binds”.

Regarding B25, the binding result is on record as “binds”.

Take B26: the binding result is given as “binds”.

Consider B27, for which the binding result is reported as “binds”.

B28: the binding result is “binds”.

For another assay, the target named is T2, human CTLA4 (human, UniProt P16410 36-223).
T2 construct: whole, on cells; HEK293T cell strain HEK293/hCTLA4 highly expressing human CTLA4 (constructed by Harbour BioMed); also called hCTLA4; CD152
T2 sequence (looked up): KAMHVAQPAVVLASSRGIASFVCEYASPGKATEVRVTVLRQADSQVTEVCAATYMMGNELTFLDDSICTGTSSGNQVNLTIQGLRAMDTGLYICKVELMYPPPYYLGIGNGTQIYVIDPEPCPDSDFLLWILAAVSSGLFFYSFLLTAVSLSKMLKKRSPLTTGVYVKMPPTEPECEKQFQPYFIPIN
The assay can be described thus: flow cytometry (FACS) on HEK293/hCTLA4 cells. As to the method: The binding ability of the antibody molecules to an HEK293T cell strain HEK293/hCTLA4 (constructed by Harbour BioMed) highly expressing human CTLA4 and other cells was determined by flow cytometry FACS. Specifically, the HEK293/hCTLA4 cells were digested and resuspended in a DMEM medium, with the cell density adjusted to 1×10⁶ cells/mL. HEK293 cells not expressing CTLA4 were used as a negative control. Thereafter, the cells were seeded in a 96-well V-bottom plate (Corning, #3894) at 100 μL/well and centrifuged at 4° C. for 5 min, and the supernatant was discarded. Then, the serially diluted antibody molecules were added to the 96-well plate at 100 μL/well, and the mixtures were well mixed. […]
Then, the cells in each well were rinsed twice with 100 μL of pre-cooled FACS buffer (PBS buffer containing 0.5% BSA) and centrifuged at 500 g at 4° C. for 5 min, and then the supernatant was discarded. […] Fluorescence signal values were read using a BD FACS CANTOII flow cytometer, and the data were processed and analyzed using FlowJo v10 (FlowJo, LLC) software. The data were processed and analyzed by plotting using GraphPad Prism 8 software, and binding curves of the antibodies to target cells, EC₅₀ values and other parameters were obtained through four-parameter nonlinear fitting.
With B29, the binding result is reported as “binds”.

B30: the binding result is given as “binds”.

Another assay deals with T1, human BCMA. The assay can be described thus: flow cytometry (FACS) on HEK293T-hBCMA cells.
On to B31, for which the binding result was “binds”.

As to B32, the binding result was “binds”.

Values taken from US20240050583A1 (HARBOUR BIOMED SHANGHAI, published 2024).
